Tested on: MS2 coat protein
Assay: apparent KD of MS2 coat protein; designed switch direction (-1 OFF switch, 1 ON switch): -1; higher = weaker reporter binding
In short: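 Apparent KD, taken as the median over clusters for each design, was obtained by curve-fitting normalised cluster fluorescence. Designed RNA switches had been transcribed on Illumina chips by stalled E. coli RNA polymerase and titrated with SNAP-549-labelled MS2 coat protein, doubling from 0.7 or 1.5 nM to 3 µM.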

[1] = input ligand: microRNA oligo, concentration not stated
[2] = Eterna round: R95, input ligand: microRNA oligo, concentration not stated
[3] = Eterna round: R95, input ligand: FMN 200 uM
[4] = Eterna round: R95, input ligand: none

Sequence: UGUUGUUACGUAGGAUAUCCACCAACAGGUGGAAGGAUAUGUACGCAGAAGGUUCGCCAACAGGCGGAGAAGGACGUGUUAACA [pwkr exNG2 2xF7 2xFMN.28] (Eterna round: R96, puzzle: Exclusion NG 2)
- apparent KD of MS2 coat protein (input ligand: FMN 200 uM): 675 nM
- apparent KD of MS2 coat protein [1]: 1110 nM
- apparent KD of MS2 coat protein (input ligand: none): 385 nM

Sequence: AAAAAACAUGAGGAUCACCCAUGUUAGGAUAUGCUAUGGAAAAUAAAAAAUAAACAUAGCAGAAGGAACAAAAA [Mat - Exclusion 1 - Eli mod - D30] (Eterna round: R96, puzzle: Exclusion 1)
- apparent KD of MS2 coat protein [1]: 33.2 nM

Sequence: AAACAGGAAGGAUAUACAUUAUCGGAUCUUCUGGCAAUGCCACAUGAGGAUCACCCAUGUAGAAGGUCCAAAUU [Isenona] (puzzle: Exclusion 2)
- apparent KD of MS2 coat protein [2]: 12.7 nM

Sequence: GGUUGGCGAGGAUAUACAUGAGGAUCACCCAUGUGAGAAAAUAGUGAGGAAAAGAAAAGUAGAAGGCGCUGACG [Mat - Exclusion 3 - Mod of Salish D54] (puzzle: Exclusion 3)
- apparent KD of MS2 coat protein [3]: 320 nM
- apparent KD of MS2 coat protein [2]: 38.8 nM
- apparent KD of MS2 coat protein [4]: 41.5 nM

Sequence: AAGGAUAGAGGAUAUACAUAGAUACAGAUUCGUGUAGAACUACAUGAGGAUCACCCAUGUAGAAGGCUAUCCUA [Fiskers Ex 2 - 7] (puzzle: Exclusion 2)
- apparent KD of MS2 coat protein [2]: 15.2 nM

Sequence: CCCGCGGGCGCAGGAUAUACAUGAGGAUCACCCAUGUGCCGCGCAAGCGGCAGAGCGGACAACGGGUAGAAGGGCGCCCGCGGG [first try] (Eterna round: R96, puzzle: Exclusion NG 2)
- apparent KD of MS2 coat protein (input ligand: FMN 200 uM): 875 nM
- apparent KD of MS2 coat protein [1]: 202 nM
- apparent KD of MS2 coat protein (input ligand: none): 492 nM

Sequence: GUAAAGUGAGGAUAUGGUAAAUUAAUUAUUAAUUAAUUAAUCCAGAAGGCACAUGAGGAUCACCCAUGUAUAUG [Mat - Exclusion 4 - D88] (puzzle: Exclusion 4)
- apparent KD of MS2 coat protein [2]: 30 nM

Sequence: CACAUGAGACGGAGAUCCAACAUGAGGAUCACCCAUGUCUCAAAAGCUUUUUGCUUGUCUUAUCCUCCUCUCGUGAC [Mat - Sensor, turn-off var - Eli Mod - D61] (Eterna round: R97, puzzle: Sensor, turn-off variant 1)
- apparent KD of MS2 coat protein (input ligand: FMN 200 uM): 47.8 nM
- apparent KD of MS2 coat protein (input ligand: none): 46.7 nM

Sequence: UCUACGUCAGGAUAUACAAGCGGUGCUCUGAUGCUGUCCAGACAUGAGGAUCACCCAUGUAGAAGGGACGACAA [Eternabot (L1) Solution 68] (Eterna round: R97, puzzle: Exclusion 2)
- apparent KD of MS2 coat protein (input ligand: FMN 200 uM): 42.6 nM
- apparent KD of MS2 coat protein (input ligand: none): 365 nM

Sequence: GGUCUUCAAGUCAGGAUAUCGUCUAAUAGAUCUAACGAGAAGGGACAUGAGGAUCACCCAUGUCGUCUCAUCAG [Ex4 #19] (Eterna round: R97, puzzle: Brourd's mod of Exclusion 4)
- apparent KD of MS2 coat protein (input ligand: FMN 200 uM): 34.5 nM
- apparent KD of MS2 coat protein (input ligand: none): 16.5 nM

Sequence: CUGUUCCGUGUAGGAUAUGCAUAUUCCCAUUAUGCAGAAGGACAUGAGGAUCACCCAUGUAUGUUAUUAUCAUGUGUUACAUGC [Design 8] (Eterna round: R96, puzzle: Exclusion NG 1)
- apparent KD of MS2 coat protein (input ligand: FMN 200 uM): 635 nM
- apparent KD of MS2 coat protein [1]: 31.3 nM
- apparent KD of MS2 coat protein (input ligand: none): 36.4 nM

Sequence: UUUUGGCAUGUAGGAUAUGGGUCCGAUUAGGAUUUAGAAGGACAUGAGGAUCACCCAUGUGCACUUAAUUGGUCUUUUUUUUUU [EXclNG1-LROPPY16] (Eterna round: R96, puzzle: Exclusion NG 1)
- apparent KD of MS2 coat protein (input ligand: FMN 200 uM): 37.7 nM
- apparent KD of MS2 coat protein [1]: 23.5 nM
- apparent KD of MS2 coat protein (input ligand: none): 36.5 nM

Sequence: AGUUGGCGAGGAUAUACAUGAGGAUCACCCAUGUGAGAGAAAAAAGUGAGGAAGAAAAGUAGAAGGCGCUGACU [salish99_ex3_r3_039] (puzzle: Exclusion 3)
- apparent KD of MS2 coat protein [3]: 313 nM
- apparent KD of MS2 coat protein [2]: 46.3 nM
- apparent KD of MS2 coat protein [4]: 60.4 nM

Sequence: CUGUACUGAGGAUAUACAUGAGGAUCACCCAUGUGUUCCAGCUAGGAAACUAGCAAAUGUAGAAGGCAGUACAG [Mat - Exclusion 3 - Eli Mod - D50] (Eterna round: R97, puzzle: Exclusion 3)
- apparent KD of MS2 coat protein (input ligand: FMN 200 uM): 307 nM
- apparent KD of MS2 coat protein (input ligand: none): 342 nM

Sequence: ACCUCACAUGAGGAUCACCCAUGUCAGGAUAUUCAAACAGGCGAAACUCCGCCUUCUCGAAGAAGGGACAUUAA [Israon] (puzzle: Exclusion 1)
- apparent KD of MS2 coat protein [2]: 16.2 nM

Sequence: GAUUAUGCGAGCUUUAGGGACAUGAGGAUCACCCAUGUUCGUCUUAUUAGUCUAGGUACACUGACAUACCUAAAUCU [JMF 67] (puzzle: Sensor v3, turn-off variant 1)
- apparent KD of MS2 coat protein [3]: 22.7 nM
- apparent KD of MS2 coat protein [2]: 33.1 nM
- apparent KD of MS2 coat protein [4]: 23.6 nM

Sequence: GGGUGACAUGAGGAUCACCCAUGUCAGGAUAUGAUUCUGCUUGCGAAAGCGAGUAGAAUCAGAAGGGACAACCC (Eterna round: R97, puzzle: Exclusion 1)
- apparent KD of MS2 coat protein (input ligand: FMN 200 uM): 359 nM
- apparent KD of MS2 coat protein (input ligand: none): 57 nM

Sequence: AAGGAUAGAGGAUAUACAUAGAUACAGGUUCAUGUAGAACUACAUGAGGAUCACCCAUGUAGAAGGCUAUCCUA [Fiskers Ex 2 - 8] (puzzle: Exclusion 2)
- apparent KD of MS2 coat protein [3]: 113 nM
- apparent KD of MS2 coat protein [2]: 20.8 nM
- apparent KD of MS2 coat protein [4]: 21.1 nM

Sequence: ACAUGAGGAUCACCCAUGUUAGGUUGGUUUUCUCCGGCUGUUGAGGAUAUAGUCCGGUAUCCGCGCUAGAAGGUGAGGGUUGGC [Aenatbe mod 9] (Eterna round: R96, puzzle: Exclusion NG 3)
- apparent KD of MS2 coat protein (input ligand: FMN 200 uM): 61.9 nM
- apparent KD of MS2 coat protein [1]: 60 nM
- apparent KD of MS2 coat protein (input ligand: none): 64.9 nM

Sequence: AUCGUGCAGCUUUGCUGUACGAGUACAUGAGGAUCACCCAUGUAGGAUAUGGUACGCUUUGCGUGCUAGAAGGAUAUGAGUAGG [EX ENG3 1.42] (Eterna round: R96, puzzle: Exclusion NG 3)
- apparent KD of MS2 coat protein (input ligand: FMN 200 uM): 84.3 nM
- apparent KD of MS2 coat protein [1]: 43 nM
- apparent KD of MS2 coat protein (input ligand: none): 48.3 nM

Sequence: GAUAUGUAAGGAUAUCUAGAAACGAGCGCAGGCUCAAGAAAAGAGAAGGUACAUGAGGAUCACCCAUGUUCCUG [EX4 A.13] (Eterna round: R97, puzzle: Exclusion 4)
- apparent KD of MS2 coat protein (input ligand: FMN 200 uM): 21.1 nM
- apparent KD of MS2 coat protein (input ligand: none): 17.9 nM

Sequence: CGAUGACGAGUGAGGAUAUCGUGUUCGAAAGAACGUGAGAAGGCACAUGAGGAUCACCCAUGUGAUCCUCAUCG [Omei Ex4B A26] (Eterna round: R97, puzzle: Brourd's mod of Exclusion 4)
- apparent KD of MS2 coat protein (input ligand: FMN 200 uM): 708 nM
- apparent KD of MS2 coat protein (input ligand: none): 57.1 nM

Sequence: UUAUAUAGUGUGAGGAUAUGCUGGUCCUUGGAUCAGCAGAAGGCACAUGAGGAUCACCCAUGUAGUUUAUUUUU [Mat - Exclusion 4 - JL Mod - D4] (puzzle: Brourd's mod of Exclusion 4)
- apparent KD of MS2 coat protein [2]: 25.9 nM

Sequence: AGUCAGGCGGUAGGAUAUCCAAACCGAGUGACCCUUUCAUAACAUGAGGAUCACCCAUGUCGGUGGGAGAAGGGCCGUACGGCA [Mat - Exclusion NG 2 - Mod of JL - D65] (Eterna round: R96, puzzle: Exclusion NG 2)
- apparent KD of MS2 coat protein (input ligand: FMN 200 uM): 410 nM
- apparent KD of MS2 coat protein [1]: 173 nM
- apparent KD of MS2 coat protein (input ligand: none): 159 nM

Sequence: UCCCUGUCAGGAUAUACAUGAGGAUCACCCAUGUCUCUCCGACACGGGAAAAGGAACUGUAGAAGGGACAGGAU [Xezaeseris] (puzzle: Exclusion 3)
- apparent KD of MS2 coat protein [3]: 19.6 nM
- apparent KD of MS2 coat protein [2]: 12.3 nM
- apparent KD of MS2 coat protein [4]: 15.2 nM

Sequence: GAGAACUGAGGAUAUACAUGAGGAUCACCCAUGUUAAGAAGAAAGUAUAAAAGAUUAUGUAGAAGGCAGAGAGA [JR_Ex3_Sub068] (Eterna round: R97, puzzle: Exclusion 3)
- apparent KD of MS2 coat protein (input ligand: FMN 200 uM): 29.8 nM
- apparent KD of MS2 coat protein (input ligand: none): 33.3 nM

Sequence: CCUCUACAUGAGGAUCACCCAUGUGAGGAUAUGCGAGGCGCACUCGAUGAGCGCGCCGGUAGAAGGCAUGUGGU [Raraveries] (Eterna round: R96, puzzle: Exclusion 1)
- apparent KD of MS2 coat protein (input ligand: FMN 200 uM): 67 nM
- apparent KD of MS2 coat protein [1]: 29.8 nM
- apparent KD of MS2 coat protein (input ligand: none): 41.9 nM

Sequence: ACAUGAGGAUCACCCAUGUCCGGCUGGUCCGUUUCGGCUGUCGAGGAUAUAGUUCGGUGUCCGCGCUAGAAGGCGGGAGCUGGC [Aenatbe mod 61] (Eterna round: R96, puzzle: Exclusion NG 3)
- apparent KD of MS2 coat protein (input ligand: FMN 200 uM): 181 nM
- apparent KD of MS2 coat protein [1]: 67 nM
- apparent KD of MS2 coat protein (input ligand: none): 98.5 nM

Sequence: AAGAUGCGGGUAGGAUAUGGAAAUUAAUAAAGACCAGAAGGACUGGUCACACAACAUGAGGAUCACCCAUGUGUGUGUUGUGAA [AK ExNG1-6] (Eterna round: R96, puzzle: Exclusion NG 1)
- apparent KD of MS2 coat protein [1]: 9.06 nM

Sequence: CCAAGCUGUGUGAGGAUAUGCUGGUCGAAAGAUCAGCAGAAGGCACAUGAGGAUCACCCAUGUGAAAAGCUUGG [Mat - Exclusion 4 - JL Mod - D93] (puzzle: Brourd's mod of Exclusion 4)
- apparent KD of MS2 coat protein [2]: 16.3 nM

Sequence: UCUCUUGGGCAAGGAUAUCCUGCGCGGUUCCGGUUCGUGUCUGUCACAUGAGGAUCACCCAUGUGGGAGAAGGUGCCUGCGGUC [Design 77] (Eterna round: R96, puzzle: Exclusion NG 2)
- apparent KD of MS2 coat protein (input ligand: FMN 200 uM): 24.5 nM
- apparent KD of MS2 coat protein [1]: 12 nM
- apparent KD of MS2 coat protein (input ligand: none): 16.7 nM

Sequence: GGUCGAAAACAGCUCCGCGCUGCCCUCGACCGCUCAUUUACAUGAGGAUCACCCAUGUUUUUUGCUUGUCUUGUUUC [Esrionus] (puzzle: Sensor v3, turn-off variant 2)
- apparent KD of MS2 coat protein [3]: 18.3 nM
- apparent KD of MS2 coat protein [2]: 80.1 nM
- apparent KD of MS2 coat protein [4]: 22.9 nM

Sequence: UACAUGAGGAUCACCCAUGUUUUGUCGUGUAUGGUAUUUAUCUAGGAUAUCAAGUUAUGUAUUUAUGAGAAGGAGAAUAUUAAU [JMF's solution 31] (Eterna round: R96, puzzle: Exclusion NG 3)
- apparent KD of MS2 coat protein (input ligand: FMN 200 uM): 40.4 nM
- apparent KD of MS2 coat protein [1]: 35.3 nM
- apparent KD of MS2 coat protein (input ligand: none): 43.2 nM

Sequence: AACUAACAUGUAGGAUAUGCGUGGCGAAGCUAUGCAGAAGGACAUGAGGAUCACCCAUGUUUUAGCGUCUGCGUACAGAUGCAU [JL ENG1 1.41] (Eterna round: R96, puzzle: Exclusion NG 1)
- apparent KD of MS2 coat protein (input ligand: FMN 200 uM): 146 nM
- apparent KD of MS2 coat protein [1]: 16.6 nM
- apparent KD of MS2 coat protein (input ligand: none): 20.8 nM
